# Values of other authors, collected in patent US3940480A, “Process for production of stabilized powdery secretin preparation by lyophilization” (priority 1972, dated 1976).
# Conditions: kept at -20°C
substance,measurement,value
Secretin,Hormone activity of secretin kept at low temperature (in words),gradually loses its hormone activity
